Tested on: neural stem cell lines derived from fetal human brain
Test: Expression signature (35 signature genes) of neural stem cell lines after BDNF treatment and withdrawal
Format: cell-based
Conditions: two neural stem cell lines
Protocol: Signal intensity values from Microarray Analysis Suite version were utilized with a scaling factor of 500 for all analysis of microarray data. K-means clustering and agglomerative clustering were performed with the use of Spotfire Decision Site software version 7.3 using Pearson correlation as the similarity measure. For each gene, data was normalized into Z scores prior to clustering. The 35 signature genes used for tumor classification represent the most robust markers for each of three tumor subsets in the MDA survival sample set. Markers of each subset are identified as follows: Each of the 76 samples is assigned to one of three groups based on k-means clustering of expression of the 108 genes most strongly correlated with survival. Using a p value cutoff of 1×10^−4, t tests were utilized to identify all genes whose expression differed between samples in each subclass compared to tumors of other subclasses (see Table A, GDM). For each comparison, we then rank-ordered the 500 probe sets with the smallest p values, by fold change. […] The final 35 signature genes contain 15 PN, 15 Mes, and 5 Prolif markers. […] For statistical comparisons of data presented in FIG. 4 F-I and FIG. 7, log-transformed data was analyzed via t tests corrected for multiple group comparisons. […]

B1: BDNF: the neurotrophic factor BDNF (protein, UniProt P23560 19-247, looked up)
Neurotrophic factor BDNF …: APMKEANIRGQGGLAYPGVRTHGTLESVNGPKAGSRGLTSLADTFEHVIEELLDEDQKVRPNEENNKDADLYTSRVMLSSQVPLEPPLLFLLEEYKNYLDAANMSMRVRRHSDPARRGELSVCDSISEWVTAADKKTAVDMSGGTVTVLEKVPVSKGQLKQYFYETKCNPMGYTKEGCRGIDKRHWNSQCRTTQSYVRALTMDSKKRIGWRFIRIDTSCVCTLTIKRGR
- shift of expression signature subclass: shifted signature subclass from the PN to the Mes class
